Source: a protein production outcome set (Wang et al. 2014)

assay: label from the status in PepcDB records

Sequence	protein production
MFGEQLLKNPLIEFCDSVCRGCGQVMFQNNTVTGLLFFAGIFYNSTTLGVCAVLGTAASTLTAQLLGVDKPLVRAGLFGFNGTLAGIALPFFFNYEPAMLGYVALNGAFTTIIMASLLNFLGKWGVPALTAPFVLATWLLMFGVYKLSLFHPGALIAPALPSVAGLADMGTVTGRTFMEGLFKGVGEVMFQDNIVTGVIFVVAILVNSRISALFAVIGSLVGLCTALIMHSPETPVRLGLYGFNSVLCGIAMGGIFFYLNIRTFLYALGCMVLGAIATGAFSVLLSPIGMPALTWPFIVVTWLFLFAGSMFRNIAQVPTEKAGTPEDNLRSLAIGSR	not failed
MFGGIENVKAAEPKVYQFDFGSGSMEPGYIGVRASDRYDRSKGYGFQTPENMRDVAASGAGVKSDAVEFLAYGTKSNNTFNVDLPNGLYEVKVTLGNTARASVAAEGVFQVINMTGDGAEDTFQIPVTDGQLNLLVTEGKAGTAFTLSALKIKKLSDQPVTNRTIYVGGDSTVCNYYPLNSSKQAGWGQMLPHYIDKHTFQVRNMASGGQIARGFRNDGQLEAILKYIKPGDYFMLQLGINDTNPKHKESEAEFKEVMRDMIRQVKAKGADVILSTPQGRATDFTSEGIHSSVNRWYRASILALAEEEKTYLIDLNVLSSAYFTSIGPERTLGLYMDGDTLHPNRAGADALARLAVQELKRQGIAGFLEHHHHHH	not failed
MFHKALITFIVLWFFLNGLGAYDFKHCQAFFKKASLQKGGVALKELPKGVYLYYSKTYPKHAKVIKSDPFVGLYLLQSAPSEYVYTLRDLDKDALIRPMASIGDKEALETRLLVGQRGYERYAQISQKTQKNGVISNICYQMLGLGVGGNGFIETKFIKRFLNQQEPYYGDIGVRLEEHHKRLVVVQFDPFFPKNPFLKNDEILAINHQKIHSLAEFEWVVSNLKYQSLAKVEIKRNHKVKEVTLKVNKRYGGFLLKDTFLERYGIALDERFIITKIGAHLPKGLDFLKLGDRILWVNYKSVASNPKALREALSAPKIELLVLRKGFEFYIKVR	failed
MFHYTVDVSTGMNETIERLEESLKQEGFGVLWQFSVTEKLQEKGLDFSTPMVILEVCNPQEAARVLNENLLVGYFLPCKLVVYQENGTTKIGMPKPTMLVGMMNDPALKEIAADIEKRLAACLDRCR	not failed
MFIGRNQELTALNKLYQEDSFQFAVIYGRRRIGKTSLINQFLKGKRAIYFTGLEENALENLARFSDAIHAYEDPSYLDGPNFASFEQAFKYLVHLSEKNDRLILVIDEFPYLAKAYPPISSMLQSYIDHYFKQNKLFLILCGSSMPFMEKQVLGYKSPLYGRRTAQFKLKPFSLHDAEEFFPQLNKEEVFELNAITGGIPLYLSLMSPKKSLRENIKDNFLTTSAMLYAEPMSLLNQELREPASYSSIISAIAAGASRQSEISTKTGIASGALSPYLDNLIDLGIVEKRLPVTELDKARSRKTIYAIKDGMFRFWYTFVGKRVSFIERGITEPILDYIIKQLPHFMGPEFEKLSQEYLWSKLFDPDLVPEPFVNLGNWWGPDPKEKKQVEMDIVGFDDQKLNGYFGECKWKNEPISADILETLIYRSILFPTPKKNYYLFSKTGFTDKCQQLAQQVDCHLITFDMM	failed
MFIHPHTSLTFEQCQKARVSRDSRFDGRFYVAVKTTGIFCRPICPANLPKEENVEYFTDKAQALKAGYRPCLRCRPDSAPGSWAWKGVETTFQRAISLIDRGELHHHSVSELAERVGISDRYLRMLFEQYLGMSPKQYAQYQQLMFAKQLLHSSSMSVTEVGFAAGFNSTRRFNDAFQKFLKLTPSQVRRREFDGVSTNRIALSYRGELNWQHMLDFYRLRAIEGVERVSGESYQRNVCLDNSKAWFKAIKGEGNLELEFEIEEVAKLQNLVSGIRRMFDLDTDICTVEQHLDYVAPGLVSNRGIRIPGVWNAWEAGVRAVLGQQVSVKAAIGQLNLLVKTLSGDADKRFFPTPDAIANADVSFLRMPQSRKETLVRFAQFMQSNAETDPQQWLALKGIGPWTVSYAQLRGQSQPDCFLDKDLVVKKAMQRYPSLNTHTAAPWGSYATFHLWNQS	failed
MFIHVGSDKVLVKFIVSKFIKDYSNISNKKVRENYGILSSIMGLIVNLILFVIELSIGIFINSIAVIADAFHNLADVSASVITLIGFKLSNKPADKEHPFGHGRVEYLSALLVSAIILLVGVEFIKTSFLRILSPEPVSFNLISFIIMLIAIPLKLWLSLFNKNIGKKINSSALKASGADALNDVYILSSVILSLLVSAFSTISIDGYVGVLIGALIIWSAVNLMKDTIDPLLGQAPDPNLVKSIKKMALKCDVILGVHDLIIHNYGPGRTMISFHAEVPYNIPIMTLHSKIDETEKRISEELDIFVVIHMDPLLIGSPEVSEAKRYVSKILKDFPSVQSFHDFRIVGDGEDKKLIFDIVVPFDVDISEKKLSKLGDDIKSEIIRRHPHYDCVITVDRDYSGI	failed
MFIKGVILSSYGVNGYARVKSISNNFCDFINLKNNKVLLKKSNSSSVEVKVVDVNIKGNSLFLKFEEIDTPEAVRPLIGFELWVDDSLASSLKEGEYYLGKLIGYAIVNNNKKLGEVVAFFEYLNSVFLEVRVGIKFFFIPFLSIYIGDINTQEKTIELKVLDLLKLEHHHHHH	failed
MFIKLMRNIFSELTSHIQNMKLYFKRSLLVFSLMSSFCVASERSAWEEVYAKSQHKQTETALKLLQDRYHSLPEGAEKLYLTSKLHGYFVLKGQPYYGELVNSHDTYALTEQRFLDALNHEESLDYHSAEETYLTFYAEMKQKNDQDGMVLFEYHLCRLFQRHGRPYQARFYCSQMDQRLLNAEDPLFPRYRGLHLVANNLEFLGEYEEALQTYDLLLSLLPDYVDPSGIYNDVGLLMGTLGQYESALDYLNKALEYRLEQGNPLLIAQVEHSLGDTYFKQGRYEESILYFEQAKAHLTPANYLFGLAYVHLGLGKAYIELNNFVEGDQHLFQALEYVNQHKDQHLQGLIYLSLAQAHFKEQKYAQAIDYANQAVAISESASLPRIKAQAYLQLAKIAEAEQQYQEALSWYRQYAESELLLRNTEQRKAFEALDLAKAELEQKRGVNFWRENYQALAEKYEMLKWQRVSLSLLVIVFALILPIAHYRRRKECDQNQQDSLHGVLSRTSGLERLTHIEACQQTEHVHLLALLDIDQLRQFNERHGYERGDIALQNTINTLLHQLRAKEFVCRLGDDEFLVVMPNCRRTLSETRLFVLHHALNGKTPTDAKSTVGLSVTLSYLAVESGLASFTHFYPKLDSALSIAKQSGNGGLIDAADPTNALLTACS	failed
MFISVLDLFKIGIGPSSSHTMGPMTAANVFRDHVDQLVSQTPDDLNYRVYCVLKGSLAFTGRGHATDRAVALGLHGHSPVSLAGEDVNALTAKLWATDTLQLTSGREIGFNPEDDIVFDKSDPLPQHPNGMIFYLLDEEGKKILSETFFSIGGGFICTLAEINQ	not failed
MFIYFPKNYVWSMSTVIAATHGGSIGEIDEFCRPLLDKSSDDADVGTVEFLHAWIGGADKLIKMAEQDLEKNRELSAAKKYYRAALYYLIAERMQEQGHPERLKVYKRYLELAELYRKYKKDDVKRVEIPYQNSHLSAIYAKGKTTDEKQAIVVMMNGLDSTKELMSYCPLADELVERGISVLMVDQPGTGEAIRLQDLRAVYNSEIWASPIVDWLCEQPEIDQHRIAAFGISLGGYYCPRAVAFEPRFCCAAIWGANHDWRAVQHARLKREGENPVPHYWKHVEWVFGAQDQKEFFEIAENMHLNGVLDRIKVPFLVTHGEKDRQIPLKYAYETYDQLINSPDKELLVIDDEMGGVEHSSIDNPLNAGAYIADWLAEHLNGKTSK	failed
MFKDKKMLKYIVIYSIIAFGILLTFNMVKDEMLYEKVDYSTFMQMLDKKEVKSVNFSGNQIEITPSDSSNLKGKILYTTNPAVAGITQPDLIKDLTAAGVGFNVTKPENYQLLGLLMSWVFPLILIFFVGRMMFSKMNNKMGGGVMSFGKNNAKLYAENETGITFKDVAGQDEAKESLVEIVDFLHDTRKYVEIGAKLPKGALLVGPPGTGKTLLAKAVAGEAKVPFFSMSGSDFVEMFVGMGAARVRDLFKQAEEKAPCIVFIDEIDAIGKSRDGAIQGNDEREQTLNQLLTEMDGFDSSKGVVILAATNRPEVLDKALLRPGRFDRRIIVDRPDLIGREEILKVHSRDVKLSDDVSLEEIAKSTPGAVGADLANIVNEAALRAVKHGRKFVIQEDLDEAVEVIIAGQEKRDRILSPKEKKIVAYHEVGHALVAALLNNTDPVHKITIVPRTMGALGYTMQLPEEEKYLVSKEEMIDQISVMLGGRAAEEVVFNSITTGASNDIERATQSARNMITIYGMSERFDMMALEAMSNRYLDGRPVRNCSETTAAIADEEVLQVIKKAHEKSIKILIENRELLDEITGVLLDKETIMGDEFMEIVYSKYPEKREADEKAKKEIQSLREQALAKRKEKEEAIKKAREEALRLEEEQRKQAELKAMIEAQEEAAKLARANNEANNDDLDSSKENEEVKSNVNDRATEEKKDDSSTNNKVDGE	failed
MFKKKGCFMNQLEQKLEQDFGIVFSQKDLLETAFTHTSYANEHRLLNISHNERLEFLGDAALQLVISVYLYNRYPNKPEGEMSKMRSTIVREESLAGFTKACGFEQYIRLGKGEEKSGGRERATILGDLWEAFLGALYLDQGLPAVEKFLNQVMIPQVEKGNFDRVIDYKTALQERLQVNGKVDITYTVIDESGPAHAKEFTMQVAVDGKELSTGLGKSKKLAEQAAAKSALEQLGN	failed
MFKKWLTWPVFYELTEIYTAPLNIMWFVLGSAIAQYHLGTVNWLNVTLCLVSVFIFDLAVNVSDNYYDYRHARDREGYAQKTNPIGRLQLPVAGVGRLALGLYLISLIPGIWLVMRTGWLVLVLGLVGYVIGIFYTAGPYPINATPLCETVVALAIAFLIELTCVVVSTYGQHPLTWSIVGTTFLLCLPLTLIFFCLQLANNTADRDEDILNHRYTLAYYLGKPGSVRLIQAFLVIGGIWPLVNVLLGLAPVVTIWVVLLLPIMWQGMRPFFEVQDKKKTFITTVKSASLFFILYPVLFVLGTWL	failed
MFKNNSYKVGVLALALSMALTGCVSDGDDGEQGLKGEQGAPGVVGVDGNDGKSLPRDLNVEVVGRFATGIYGKSAAEIVQFHKSSNAAFAINGASNQIEVISLTNLSTTAVGNPVADESLTSNAFIFPLNVSVTNSAGVEKDMSLGAVNSIAIKKDLLAIAVEGEIKQAHGAILFYSLNELGEGTFIKAVEVGALPDMVTFTPDGSKALVANEGEPNTDYTNDPEGSISVISVVDLMPANVAKTINLSTDIVFSDDNLVPEDFDTDAKRLAILSKAGVKFAGPAGNTVAKDLEPEYITTSSNSKMAYVSLQENNAIGIINLEELTIEVKALGYKDWGKYQLDFSNKDEVPEFKSIQGLYGMYQPDTLASYTWNDTTFIVSANEGDARDYDGFSEEVRVKDIIDTDELNQTLSSELQSQYDVSGGKNYLGRLKVTTALGDEDQNGEFEKLFAYGARSFSIWDKNANLVFDSGDDFGKISAAIMGDNFNAAHTKNKGDNRSDDKGGEPEAIDVGEIAGRTYAFIAQERAGDLFVYDITNPFKTAFVTHYNNRDFTVDYEMDDDLADPCDSSEGMDCTKVNSAGDLGPESIKFVSAIDSPTSKPLLIIGNEVSGTVTVYQITEQ	failed
MFKRFVLSLAFLIMAAVVSFQVIFTVPEHPQIITQTGSEITEDIRCIEFSGAKALDDNGELNLLVWNIYKQNRANWQSELELFSADKQLLLLQEASMTDSFKQWLVDGSWVSNQVSAFKALGSGAGVISIAQKQPIKACAYTSKEPWLRLPKSALYSQYRLSNGESLAVINVHAINFTVGTEEYTSQLSALETLLKQHSGPIVFAGDFNSWSEYRITAMKQALREANLREVQFSPDHRTQFITGLPLDHVFYRGLTLKNAKAPQSDASDHNPLLVSFTLND	failed
MFKSNYKGYGSGIISAMAWGLDTVLVGVILSMAPFINTESAIMLAPFVSTFLHDFFSTLWMFIYMIFTRQVGKLFKSLKTPSTKYVILASIFGGPMGMTGYLLSVNYIGPSYAATISSIYPAVGAVLAAIFLKEKISRKGYIGLTISILGIALLGFGNDGGKASLIGFLFAGLSVLGWGSESVICSYGMKDEDISPKQALQIRQFISALFSGVIILPLLKAYPLVFEVLKGNVTFVIIGTALMGTISYVCYYTAIHKLGPTRAMGLNITYVVWAMIFDKVLLGHNITIKMVICALMVMIGSFVVATQPAHEEELTNVTNTAV	failed
